Tested on: MS2 coat protein
Assay: apparent KD of MS2 coat protein; designed switch direction (-1 OFF switch, 1 ON switch): 1; higher = weaker reporter binding
Procedure, shortened: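 Normalised cluster fluorescence was curve-fitted, and each design's median over clusters is its apparent KD. Before this, SNAP-549-labelled MS2 coat protein was titrated from 0.7 or 1.5 nM, doubling to 3 µM, over RNA switches transcribed on Illumina chips by stalled E. coli RNA polymerase. Titrations had no input, 200 uM small-molecule ligand, or an oligonucleotide input, and steps lasted 0.8–1.5 h (lowest) to 10–20 min (highest).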

[1] = input ligand: microRNA oligo, concentration not stated
[2] = Eterna round: R95, input ligand: FMN 200 uM
[3] = Eterna round: R95, input ligand: microRNA oligo, concentration not stated
[4] = Eterna round: R95, input ligand: none

Row | Sequence | apparent KD of MS2 coat protein (input ligand: FMN 200 uM) [nM] | apparent KD of MS2 coat protein [1] [nM] | apparent KD of MS2 coat protein (input ligand: none) [nM] | apparent KD of MS2 coat protein [2] [nM] | apparent KD of MS2 coat protein [3] [nM] | apparent KD of MS2 coat protein [4] [nM]
1 | AUAAAACAUGAGGAUCACCCAUGUCAACAAAGUCGAGGAUAUGGGUAAAUAAAAUAAGAACCAGAAGGCGAAUAAU [salish99_ss1_r3_028] (Eterna round: R96, puzzle: Same State 1) | 122 | 713 | 941 |  |  | 
2 | UAUGCACAUGAGGAUCACCCAUGUGAUAGAAUCACAGGAUAUCACCUCGGACGUGCGAUGUGAGAAGGGUGGUCGU [Same State 1 - Mod of Vinnie Anrelari v.4] (puzzle: Same State 1) |  |  |  | 150 | 63.1 | 124
3 | GGAGAGAGAGCGCAGGAUAUUUGAGGAGAAACAUGAGGAUCACCCAUGUGAGAGAGAGAGGAGAAAGAGAAGGGUGAGAGAGAGG [Altered State 2-15 - Jieux - Same State 2] (puzzle: Same State 2) |  |  |  | 41.9 | 52.9 | 57.8
4 | AAAAUGGUAUGUUACAUGAGGAUCACCCAUGUACUCUAAUCUGAGGAUAUGGGAAUGAAGAAGAACCAGAAGGCAGACAUCCAA [AK SSNG3-V2-23] (Eterna round: R96, puzzle: Same State NG 3) | 258 | 91.8 | 104 |  |  | 
5 | CGUAGGUAGCUGGAGGAUAUUCGAGUGGUAACAUGAGGAUCACCCAUGUGGAGUUAGUUACAUGAGGAGAAGGCUAGCUGCCUGC [JL-ss2-3.17 JL mod] (puzzle: Same State 2) |  |  |  | 36.7 | 61 | 74.5
6 | UUUGCAUGACGAGGAUAUCAUUUAUUUCUUGAUUGAGAAGGCGUUCUUUUUCCUACCUAACAUGAGGAUCACCCAUGUGACAGU [JR_SSNG1_Sub049] (Eterna round: R96, puzzle: Same State NG 1) | 12.7 | 12 | 14 |  |  | 
7 | AGUCCAGCCUGAGCUGGACAAAAGCAUGUACAUGAGGAUCACCCAUGUUCAUGUACAAGCUUUUUGCUCGUCUUAAU [salish99_208a_r3_027] (puzzle: Sensor for hsa-mir-208a) |  |  |  | 480 | 14 | 643
8 | AAACGUCACAUGAGGAUCACCCAUGUAGCCAUAAGAAGCGGACAGGAUAUUGACCUGAACGGAGUCAAGAAGGGUCAGUAUCAG [Eternabot solution 1] (Eterna round: R96, puzzle: Same State NG 3) | 14.7 | 12.9 | 18.2 |  |  | 
9 | GUUACAUGAGGAUCACCCAUGUAUGUGUGGGAGUAAGUGUCUUAGGAUAUCUAUCAUUUUAUUUAAGAGAAGGAAGAUUGUUGU [JMF's solution 93] (Eterna round: R96, puzzle: Same State NG 3) | 121 | 77.4 | 111 |  |  | 
10 | UGGCAACAUGAGGAUCACCCAUGUCAAACUAAUCGAGGAUAUGGGAACUAACAACACAAACUAGAAGGCGAACUUG [Altered State 1-10 - Jieux - Same State 1] (puzzle: Same State 1) |  |  |  | 74.9 | 32 | 38.3
11 | AUAUAACAUGAGGAUCACCCAUGUCAACAAAGUCGAGGAUAUGGGCAAAUAAAAUAAGAACCAGAAGGCGAAUAAU [salish99_ss1_r3_047] (puzzle: Same State 1) |  |  |  | 42.2 | 462 | 693
12 | UUACAGUGCGGGUAGGAUAUGUAGGGUGGUACAUGAGGAUCACCCAUGUAUCCACCCUUCUACCGGCAGAAGGGCCUGUCACUGC [Enlaeror] (Eterna round: R96, puzzle: Same State 2) | 17.2 | 9.64 | 17 |  |  | 
13 | CGAUUCGCCAGUACAUGAGGAUCACCCAUGUAGAGACCAGUUUAGGAUAUCUUUGCGACGUGCUGAGAGAAGGGAAUAUGGAGC [Eternabot solution 45] (Eterna round: R96, puzzle: Same State NG 3) | 33.1 | 27.5 | 37.4 |  |  | 
14 | AUACAUGAGGAUCACCCAUGUAAUUAAUUAAUUAAUAAGAUCUAGGAUAUCAGCUCGAUUAGAGCUGAGAAGGAGAUCACAUGU [SSNG3/21-B2] (Eterna round: R96, puzzle: Same State NG 3) |  | 16.8 |  |  |  | 
15 | GAGUAGUUGAAAGGAUAUCCAUUGUUAUAGAAUGGAGAAGGUUCUAACAUGAGGAUCACCCAUGUAGGACUAUUCCUGUGUAUC [Parity 81 - Jieux - Same State NG 1] (Eterna round: R96, puzzle: Same State NG 1) | 9.98 | 8.16 | 11.9 |  |  | 
16 | GGAGGACAUGAGGAUCACCCAUGUAGAUGGGCGCUAGGAUAUGCGAGAGGGUAGAGAGAAGCAGAAGGAGUGGAUU [JR_SS1_Sub041] (puzzle: Same State 1) |  |  |  | 156 | 259 | 214

Row | Sequence | apparent KD of MS2 coat protein (input ligand: FMN 200 uM) [nM] | apparent KD of MS2 coat protein [1] [nM] | apparent KD of MS2 coat protein (input ligand: none) [nM] | apparent KD of MS2 coat protein [2] [nM] | apparent KD of MS2 coat protein [3] [nM] | apparent KD of MS2 coat protein [4] [nM]
17 | UGACACACGGCAGGAUAUCGAUAGCAAAGCUAUCGAGAAGGGCCUCAUGUCGUGGAAACGUGACAUGAGGAUCACCCAUGUUGC [Omei SS(NG)1 Cv11] (Eterna round: R96, puzzle: Same State NG 1) | 280 | 8.42 | 51.4 |  |  | 
18 | GGUUUAGUCAAGUGCCGUUGCACUUGAAAACAUGAGGAUCACCCAUGUUCGGGACAAGCUUUGCUCCUCGUCUUUCC [Geisedor] (puzzle: Sensor for hsa-mir-208a) |  |  |  | 255 | 50.2 | 389
19 | GAGUUUGAACUACAGGAUAUAUAGCAGAUGACAUGAGGAUCACCCAUGUAAGAGAAAGGAGGGAAAUAGAAGGGUAUGGGAGGUG [JR_SS2_Sub035] (puzzle: Same State 2) |  |  |  | 33.7 | 20.4 | 24.3
20 | GGAAACAACACAGGAUAUCCAGAUGAUGAUGAAGGAGAAGGGUGUGCCCACAUGAGGAUCACCCAUGUUACAACGAAUAGAUAA [racquet 1] (Eterna round: R96, puzzle: Same State NG 1) | 457 | 666 | 1240 |  |  | 
21 | GGAGCCGGCACGGAGGAUAUUCAUAUUAAAACAUGAGGAUCACCCAUGUAGGCCAGAAGGCCUUGGGAGAAGGCCGAUCGGCUCG [Xeonanis - 15] (Eterna round: R96, puzzle: Same State 2) | 21.2 | 258 | 333 |  |  | 
22 | GAUAUACAUGAGGAUCACCCAUGUCAUAUGACAUGAGGAUAUGUACAGACUUCGGUCUGUACAGAAGGCAUGUGUC [SS1 - 1011 Omei Mod 1] (puzzle: Same State 1) |  |  |  | 60.5 | 338 | 530
23 | GCUCGAUGAGCGGUUUACAUGAGGAUCACCCAUGUACGUGGGCAGGAUAUUUACGUGCUUUGUGUAGAGAAGGGCCCAUCGAGC [SameState NG3 #73] (Eterna round: R96, puzzle: Same State NG 3) | 39.8 | 191 | 405 |  |  | 
24 | GAGUAGUUGAUAGGAUAUUGAUUGUUAUAGGAUCAAGAAGGAUCUAACAUGAGGAUCACCCAUGUAGGACUAUUCCUGUGUAUC [Parity 84 - Jieux - Same State NG 1] (Eterna round: R96, puzzle: Same State NG 1) |  | 16.9 |  |  |  | 
25 | UAGAGAGGAAGCGAGGAUAUCGUGUUAGGUACAUGAGGAUCACCCAUGUUGUAGGUAGAGGUAGGCGAGAAGGCGCAGGAGAGGU [JR_SS2_Sub094] (puzzle: Same State 2) |  |  |  | 33.4 | 38.8 | 41.4
26 | CGCUGUCACGCAGGAUAUGCAUUGGAUUACAAUGCAGAAGGGCGAUUACAUGAGGAUCACCCAUGUGUAGACAGUGAAGAAGAG [MOD JMF Solution 3] (Eterna round: R96, puzzle: Same State NG 1) | 32.4 | 271 | 386 |  |  | 
27 | AGUCCACGCUGACGUGGACAAAAGCAUGUACAUGAGGAUCACCCAUGUCAUGUACAAGCUUUUUGCUCGUCUUAAAA [Mat - hsa-mir-208a - Mod of JL - D17] (Eterna round: R96, puzzle: Sensor for hsa-mir-208a) | 346 | 13.2 | 447 |  |  | 
28 | UUUUUUAUCGUAGGAUAUAGGUUGAAUAAUAGACUAGAAGGACGUGACAUGAGGAUCACCCAUGUUUUUUAAGUGUCGAAGUGU [JR_SSNG1_Sub039] (Eterna round: R96, puzzle: Same State NG 1) |  | 19.6 |  |  |  | 
29 | CGUAGGUAGCUGGAGGAUAUUCGAGUGGUAACAUGAGGAUCACCCAUGUGUUGAGAGGUACAUGAGGAGAAGGCUAGCUGCCUGC (puzzle: Same State 2) |  |  |  | 17.6 | 58.2 | 75.1
30 | UAGAAACAUGAGGAUCACCCAUGUGUCAAAGACAUAGGAUAUCACGACUGGAGUCAAUCGUGAGAAGGGUGGUAAA [Usra] (puzzle: Same State 1) |  |  |  | 92.3 | 19.4 | 38.7
31 | AUACAGGAGCCACAUGAGGAUCACCCAUGUGACACGCAAAUGAAGGAUAUCCGACUCCAGACGAGGGAGAAGGUCACGGCGGGC [Eternabot solution 13] (Eterna round: R96, puzzle: Same State NG 3) | 16.6 | 11.5 | 20.1 |  |  | 

— the supplement of paper PMC9170038
